Consider 1 substance from doi:10.1101/2025.11.05.686826.

The test has as its target Prometheoarchaeum syntrophicum rubisco (Prometheoarchaeum syntrophicum). Put plainly: SEC-SAXS. On the technique in general: Size exclusion chromatography separates by hydrodynamic size, large species first.

As to “Prometheoarchaeum syntrophicum rubisco (enzyme)”, the stoichiometry N – broadly, the number of molecules, sites or subunits per partner or assembly – is 2.
